Here are results for 31 sequences from the supplement of paper PMC9170038.

This series deals with MS2 coat protein. Put plainly: apparent KD of MS2 coat protein; designed switch direction (-1 OFF switch, 1 ON switch): -1; higher = weaker reporter binding. An outline of the steps:
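Three titration conditions were used: no input, 200 uM small-molecule ligand, and an oligonucleotide input. In each, SNAP-549-labelled MS2 coat protein was raised from 0.7 or 1.5 nM, doubling, to 3 µM over designed RNA switches transcribed on Illumina chips by stalled E. coli RNA polymerase. Curve fits of normalised cluster fluorescence gave values whose per-design median over clusters is the apparent KD.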

Where [1] appears, read: input ligand: microRNA oligo, concentration not stated.
The mark [2] stands for this setting: Eterna round: R95, input ligand: microRNA oligo, concentration not stated.
Setting [3] is: Eterna round: R95, input ligand: FMN 200 uM.
The mark [4] stands for this setting: Eterna round: R95, input ligand: none.

Take “CAGUACUGAGGAUAUACAUGAGGAUCACCCAUGUAUCCUAGCUAGGAAACUAGCAAAUGUAGAAGGCAGUACUG [Ex3: 818] (Eterna round: R96, puzzle: Exclusion 3)”: the “apparent KD of MS2 coat protein” value is, setting by setting: (input ligand: FMN 200 uM) 747 nM; under setting [1], 53.8 nM; (input ligand: none) 61.2 nM.

“CAGUACUGAGGAUAUACAUGAGGAUCACCCAUGUGAACCAGCUAGGAAACUAGCAAAAGUAGAAGGCAGUACUG [828 mod 2 m7] (Eterna round: R97, puzzle: Exclusion 3)”: the “apparent KD of MS2 coat protein” value (input ligand: FMN 200 uM) was found to be 2260 nM and the “apparent KD of MS2 coat protein” value (input ligand: none) worked out at 92.5 nM.

Take “CAGUACUGAGGAUAUACAUGAGGAUCACCCAUGUGAGAAAUACUAAUGAGGUCGAUUAGUAGAAGGCAGUACUG [Mat - Exclusion 3 - Eli Mod - D32] (Eterna round: R97, puzzle: Exclusion 3)”: the “apparent KD of MS2 coat protein” value runs as follows: (input ligand: FMN 200 uM) 255 nM; (input ligand: none) 19.7 nM.

For “CAGUACUGAGGAUAUACAUGAGGAUCACCCAUGUGCACCAGCUAGGAUACUAGCAAAAGUAGAAGGCAGUACUG [Mat - Exclusion 3 - Eli Mod - D19] (Eterna round: R97, puzzle: Exclusion 3)”, the “apparent KD of MS2 coat protein” value runs as follows: (input ligand: FMN 200 uM) 118 nM; (input ligand: none) 16.1 nM.

For the sequence “CAGUACUGAGGAUAUACAUGAGGAUCACCCAUGUGCCUUAGCUAGGAUACUAGCAUUAGUAGAAGGCAGUACUG [Fiskers Ex 3 828 mod 14] (puzzle: Exclusion 3)”, the “apparent KD of MS2 coat protein” value under setting [2] was 14.2 nM.

“CAGUACUGAGGAUAUACAUGAGGAUCACCCAUGUGUCCCUGCUAGGAAACUAGCAAUAGUAGAAGGCAGUACUG [Fiskers Ex 3 828 mod 4] (puzzle: Exclusion 3)”: under setting [2], the “apparent KD of MS2 coat protein” value came out at 17 nM.

For the sequence “CAGUACUGAGGAUAUACAUGAGGAUCACCCAUGUGUGCCAGCUAGGAAACUAGCAAAAGUAGAAGGCAGUACUG [salish99_ex3_r3_082] (puzzle: Exclusion 3)”, the “apparent KD of MS2 coat protein” value is 102 nM under setting [3], 12 nM under setting [2] and 11.9 nM under setting [4].

As to “CAGUACUGAGGAUAUACAUGAGGAUCACCCAUGUGUUCCAGCUAGGAAACGAGCAAAAGUAGAAGGCAGUACUG [salish99_ex3_r3_071] (puzzle: Exclusion 3)”, the “apparent KD of MS2 coat protein” value under setting [2] turned out to be 19.7 nM.

Regarding “CAGUACUGAGGAUAUACAUGAGGAUCACCCAUGUGUUCCAGCUGGGAAACUAGCAAAAGUAGAAGGCAGUACUG [salish99_ex3_r3_076] (Eterna round: R96, puzzle: Exclusion 3)”, the “apparent KD of MS2 coat protein” value by setting is: (input ligand: FMN 200 uM) 287 nM; under setting [1], 21.4 nM; (input ligand: none) 21.8 nM.

“CAGUACUGAGGAUAUACAUGAGGAUCACCCAUGUGUUCCAGCUGGGAAACUAGCAAAAGUAGAAGGCAGUACUG [salish99_ex3_r3_076] (puzzle: Exclusion 3)”: the “apparent KD of MS2 coat protein” value came to 422 nM under setting [3], 27.3 nM under setting [2] and 20.8 nM under setting [4].

Take “CAGUUCCAGGGAGGAUAUCCGAAAGGAAGUGUAGGAGAAGGCCCAAACUGAAAACACAUGAGGAUCACCCAUGUAGGUGUUCUC [PowerStrip EXNG 1.20] (Eterna round: R96, puzzle: Exclusion NG 1)”: the “apparent KD of MS2 coat protein” value runs as follows: (input ligand: FMN 200 uM) 1320 nM; under setting [1], 656 nM; (input ligand: none) 659 nM.

For “CAUACACAUGAGGAUCACCCAUGUGAGGAUAUGCGUACGUAAUCCGUAGGAGACGUGCGCAGAAGGCGCGAGGU [Mat - Mod of JL D94] (puzzle: Exclusion 1)”, the “apparent KD of MS2 coat protein” value under setting [2] is 38.7 nM.

As to “CAUACUCAAGUGAGGAUAUAGUCUCGGAUACGGAACUAGAAGGCACAUGAGGAUCACCCAUGUAGAGAGUAAAG [EX-4 Malc #28] (puzzle: Brourd's mod of Exclusion 4)”, the “apparent KD of MS2 coat protein” value is 56.6 nM under setting [3], 22.8 nM under setting [2] and 15.9 nM under setting [4].

As for “CAUACUGAAGUUAGGAUAUUCGGACGAAUACGGAUGGAGAAGGGACAUGAGGAUCACCCAUGUAGAUAGUAAAG [EX-4 Malc #13] (puzzle: Brourd's mod of Exclusion 4)”, the “apparent KD of MS2 coat protein” value by setting is: under setting [3], 20.1 nM; under setting [2], 20.7 nM; under setting [4], 19.8 nM.

As for “CAUGAUCUUCGGAUCAUGUACAUGAGGAUCACCCAUGUGACGAGUAUAUCCUCAAACAAGCUUUUUGCUCGUCUUAU [Sensor v3 - Turn-off variant 1 - 22] (puzzle: Sensor v3, turn-off variant 1)”, the “apparent KD of MS2 coat protein” value was 299 nM under setting [3], 417 nM under setting [2] and 327 nM under setting [4].

Take “CAUGGAUGUGAGCCGCAUUACAUGAGGAUCACCCAUGUCAACAAGCUUUUUGCUUGUCUUACGCGGCGGCAUCAAAA [Geonso] (puzzle: Sensor v3, turn-off variant 1)”: the “apparent KD of MS2 coat protein” value under setting [3] is 12 nM, the “apparent KD of MS2 coat protein” value under setting [2] is 9.86 nM and the “apparent KD of MS2 coat protein” value under setting [4] stood at 10.3 nM.

As for “CAUGGAUGUGAGCCGCAUUACAUGAGGAUCACCCAUGUCAACAAGCUUUUUGCUUGUCUUACGCGGCGGCAUCUAAA [Abebies] (puzzle: Sensor v3, turn-off variant 1)”, the “apparent KD of MS2 coat protein” value reads like this: under setting [3], 11.3 nM; under setting [2], 8.44 nM; under setting [4], 10.3 nM.

For the sequence “CAUGUCCAACGAGGAUAUGGGACAGGAGGUGUACCAGAAGGCGUACGGACAUGAGGAUCACCCAUGUCGCGCGGUGCGAUGUGG [15th something] (Eterna round: R96, puzzle: Exclusion NG 1)”, the “apparent KD of MS2 coat protein” value was 98.9 nM (input ligand: FMN 200 uM), 39.8 nM under setting [1] and 62.8 nM (input ligand: none).

As for “CAUGUGUAAGGAUAUGACAAUGGUAUCGAAAGAUACCAUUGUCAGAAGGUACAUGAGGAUCACCCAUGUGGAUC [Ex4-3: 18] (puzzle: Exclusion 4)”, under setting [2], the “apparent KD of MS2 coat protein” value came to 199 nM.

Regarding “CAUUAGCAAGCGAGAUCCCACAUGAGGAUCACCCAUGUGCUCGUCUUAUAAGGUACUGUGACGAUAGUCACGGUACC [Mat - Sensor, turn-off var - Eli Mod - D41] (Eterna round: R97, puzzle: Sensor, turn-off variant 1)”, the “apparent KD of MS2 coat protein” value by setting is: (input ligand: FMN 200 uM) 17.1 nM; (input ligand: none) 14.3 nM.

On to “CAUUGUUAUCGAGGAUAUCGUAUUGAGAUUCUACGAGAAGGCGGACUAAACAUGAGGAUCACCCAUGUGGGACGGAUGCUUGGG [Ex NG1 #31] (Eterna round: R96, puzzle: Exclusion NG 1)”, for which the “apparent KD of MS2 coat protein” value is, setting by setting: (input ligand: FMN 200 uM) 30.7 nM; under setting [1], 25.8 nM; (input ligand: none) 28.1 nM.

For “CAUUUGUGAGGAUAUCAGGUGUGCUAGCGUACUGGUACAUCUGAGAAGGCACAUGAGGAUCACCCAUGUUCCUU [Mat - Exclusion 4 - Mod of JL - D36] (puzzle: Exclusion 4)”, the “apparent KD of MS2 coat protein” value under setting [2] was found to be 12.8 nM.

Regarding “CCAAAGCGAGGAUAUACUUGCGACCCAAGCGUGGAAGACAUACUUGAGGAUCACCCAAGUAGAAGGCGCGCCAA [Dibixela] (Eterna round: R97, puzzle: Exclusion 2)”, the “apparent KD of MS2 coat protein” value by setting is: (input ligand: FMN 200 uM) 145 nM; (input ligand: none) 92 nM.

In the case of “CCAAAGUCAGGAUAUGUGCGUUAAAAGCCGUACGUAACGACACAGAAGGGACAUGAGGAUCACCCAUGUUGGUG [Eternabot (Original) Solution 13] (Eterna round: R97, puzzle: Exclusion 4)”, the “apparent KD of MS2 coat protein” value came to 96.7 nM (input ligand: FMN 200 uM) and 979 nM (input ligand: none).

In the case of “CCAAGAAUAGGAUAUACAACAUGCCAGCUUCUUUACAUCGCACAUGAGGAUCACCCAUGUAGAAGGGUUCUCUG [Exclusion-2-#15] (Eterna round: R97, puzzle: Exclusion 2)”, the “apparent KD of MS2 coat protein” value was 182 nM (input ligand: FMN 200 uM) and 209 nM (input ligand: none).

On to “CCAAGCUACUUCAUUAUCCACAUGAGGAUCACCCAUGUCUAGGCAAUUAUGACCUGCCCGUCAGGAGCUCGUCUUAU [Sensor-V1 #40] (Eterna round: R97, puzzle: Sensor, turn-off variant 1)”, for which the “apparent KD of MS2 coat protein” value reads like this: (input ligand: FMN 200 uM) 35.1 nM; (input ligand: none) 28.7 nM.

Regarding “CCAAGCUGUGUGAGGAUAUGCUGGUCGAAAGAUCAGCAGAAGGCACAUGAGGAUCACCCAUGUGAAAAGCUUGG [Mat - Exclusion 4 - JL Mod - D93] (puzzle: Brourd's mod of Exclusion 4)”, the “apparent KD of MS2 coat protein” value under setting [2] turned out to be 16.3 nM.

In the case of “CCAAGCUUAUUCAUUAACAACAUGAGGAUCACCCAUGUAUAGGCAAUUAUGACUGGGCUCUUUAGUGCUCGUCUUAU [Sensor-V1 #25] (Eterna round: R97, puzzle: Sensor, turn-off variant 1)”, the “apparent KD of MS2 coat protein” value (input ligand: FMN 200 uM) worked out at 16.2 nM and the “apparent KD of MS2 coat protein” value (input ligand: none) was 14.7 nM.

As for “CCAAGCUUUUUCAUUAACAACAUGAGGAUCACCCAUGUGUAAGCUAUUAGGUUUGGGCUCUUUAGUGCUCGUCUUAU [JR_STOV1_Sub041] (Eterna round: R97, puzzle: Sensor, turn-off variant 1)”, the “apparent KD of MS2 coat protein” value came to 14.5 nM (input ligand: FMN 200 uM) and 13.5 nM (input ligand: none).

Turning to “CCACUUACUGAGGAUAUUGCAUCACCCGACUGAUAAGAAGGCAGAACAUGAGGAUCACCCAUGUGGGUACUCAC [Bingo-Bango-9] (Eterna round: R97, puzzle: Exclusion 6)”, the “apparent KD of MS2 coat protein” value stood at 207 nM (input ligand: FMN 200 uM) and 155 nM (input ligand: none).

Regarding “CCAGACGCUGUGAGGAUAUGAAAAGGUGCUGCUUUUUAGAAGGCACAUGAGGAUCACCCAUGUGGUACCUCGGG [Eternabot (L1) Solution 20] (Eterna round: R97, puzzle: Brourd's mod of Exclusion 4)”, the “apparent KD of MS2 coat protein” value by setting is: (input ligand: FMN 200 uM) 397 nM; (input ligand: none) 514 nM.
